The labels stand for the following.
B1: P2RY14 (parent)
chain: KLLSVIVWMLMLLLAVPNIILTNQ
B2: ANKRD40 (parent)
chain: YQELLRVCCCELGVNPDQVEKIRK
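Further: lentivirally expressed fusions sorted by FACS into six bins by GFP to DsRed ratio, PSI derived from sequencing read proportions per bin multiplied by bin number.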

The variants in one data set derive from B1. The data set is described as follows: protein stability index of a GFP-peptide fusion (GPS, HEK-293T) (PSI 1-6); higher = more stable. As to conditions: c terminus: a fixed tail appended.
On to KLLNVIVWMLMLLLAVPNIILTNQ, for which the protein stability index was 2.81.

As for KLLPVIVWMLMLLLAVPNIILTNQ, the protein stability index worked out at 3.34.

With KLLGVIVWMLMLLLAVPNIILTNQ, the protein stability index is 2.85.

With KLLIVIVWMLMLLLAVPNIILTNQ, the protein stability index came out at 2.44.

Regarding KLLFVIVWMLMLLLAVPNIILTNQ, the protein stability index was 2.98.

Turning to KLLHVIVWMLMLLLAVPNIILTNQ, the protein stability index came out at 3.18.

Turning to KLLKVIVWMLMLLLAVPNIILTNQ, the protein stability index amounted to 5.66.

Take KKLSVIVWMLMLLLAVPNIILTNQ: the protein stability index is 2.76.

In the case of KPLSVIVWMLMLLLAVPNIILTNQ, the protein stability index worked out at 3.19.

KFLSVIVWMLMLLLAVPNIILTNQ: the protein stability index came out at 2.29.

Regarding KDLSVIVWMLMLLLAVPNIILTNQ, the protein stability index is 2.67.

As for KGLSVIVWMLMLLLAVPNIILTNQ, the protein stability index worked out at 2.21.

Turning to KILSVIVWMLMLLLAVPNIILTNQ, the protein stability index was 3.46.

As for KCLSVIVWMLMLLLAVPNIILTNQ, the protein stability index is 3.88.

For the variant KNLSVIVWMLMLLLAVPNIILTNQ, the protein stability index is 1.89.

Take RLLSVIVWMLMLLLAVPNIILTNQ: the protein stability index worked out at 2.35.

For QLLSVIVWMLMLLLAVPNIILTNQ, the protein stability index came to 4.07.

Turning to FLLSVIVWMLMLLLAVPNIILTNQ, the protein stability index stood at 3.58.

PLLSVIVWMLMLLLAVPNIILTNQ: the protein stability index was found to be 2.13.

Regarding YLLSVIVWMLMLLLAVPNIILTNQ, the protein stability index was determined as 3.13.

As for GLLSVIVWMLMLLLAVPNIILTNQ, the protein stability index is 2.55.

In the case of DLLSVIVWMLMLLLAVPNIILTNQ, the protein stability index came to 1.48.

Regarding LLLSVIVWMLMLLLAVPNIILTNQ, the protein stability index amounted to 3.3.

With WLLSVIVWMLMLLLAVPNIILTNQ, the protein stability index turned out to be 1.35.

For ILLSVIVWMLMLLLAVPNIILTNQ, the protein stability index is 2.53.

On to HLLSVIVWMLMLLLAVPNIILTNQ, for which the protein stability index turned out to be 4.35.

With KLSSVIVWMLMLLLAVPNIILTNQ, the protein stability index is 2.35.

For the variant KLASVIVWMLMLLLAVPNIILTNQ, the protein stability index was 2.27.

Consider KLYSVIVWMLMLLLAVPNIILTNQ, for which the protein stability index was found to be 2.55.

As to KLKSVIVWMLMLLLAVPNIILTNQ, the protein stability index came to 3.61.

With KLNSVIVWMLMLLLAVPNIILTNQ, the protein stability index stood at 4.61.

For the variant KLMSVIVWMLMLLLAVPNIILTNQ, the protein stability index was 1.64.

With KLFSVIVWMLMLLLAVPNIILTNQ, the protein stability index amounted to 3.42.

KLHSVIVWMLMLLLAVPNIILTNQ: the protein stability index came to 1.3.

Regarding KLWSVIVWMLMLLLAVPNIILTNQ, the protein stability index turned out to be 3.69.

With KLISVIVWMLMLLLAVPNIILTNQ, the protein stability index worked out at 1.73.

On to KLTSVIVWMLMLLLAVPNIILTNQ, for which the protein stability index turned out to be 2.93.

Regarding KLESVIVWMLMLLLAVPNIILTNQ, the protein stability index worked out at 2.78.

In a further data set the parent is B2. Described as above. The settings on record: c terminus: a fixed tail appended.
On to YQELLRVCCCELGVNPDQVEYIRK, for which the protein stability index came out at 2.15.

Turning to YQELLRVCCCELGVNPDQVEWIRK, the protein stability index was found to be 2.33.

On to YQELLRVCCCELGVNPDQVEKIWK, for which the protein stability index worked out at 1.72.

Take YQELLRVCCCELGVNPDQVEKITK: the protein stability index turned out to be 2.08.

As to YQELLRVCCCELGVNPDQVEKIGK, the protein stability index came out at 1.56.

For the variant YQELLRVCCCELGVNPDQVEKIIK, the protein stability index came to 1.8.

Regarding YQELLRVCCCELGVNPDQVEKIHK, the protein stability index was 1.84.

For the variant YQELLRVCCCELGVNPDQVEKIQK, the protein stability index was determined as 1.4.

Consider YQELLRVCCCELGVNPDQVEKIYK, for which the protein stability index was determined as 1.8.

Turning to YQELLRVCCCELGVNPDQVEKIPK, the protein stability index is 1.57.

As for YQELLRVCCCELGVNPDQVEKIAK, the protein stability index came out at 1.91.

Consider YQELLRVCCCELGVNPDQVEKIDK, for which the protein stability index was found to be 2.04.

On to YQELLRVCCCELGVNPDQVEKISK, for which the protein stability index came to 1.72.

Consider YQELLRVCCCELGVNPDQVEKIMK, for which the protein stability index is 2.02.

As for YQELLRVCCCELGVNPDQVEKIEK, the protein stability index came to 1.6.

On to YQELLRVCCCELGVNPDQVEKIVK, for which the protein stability index was found to be 2.9.

Regarding YQELLRVCCCELGVNPDQVEKIFK, the protein stability index is 1.55.

For the variant YQELLRVCCCELGVNPDQVEKIKK, the protein stability index came to 1.25.

Consider YQELLRVCCCELGVNPDQVEKINK, for which the protein stability index came to 1.93.

YQELLRVCCCELGVNPDQVEKILK: the protein stability index came out at 1.98.

YQELLRVCCCELGVNPDQVEKNRK: the protein stability index amounted to 3.16.

Consider YQELLRVCCCELGVNPDQVEKKRK, for which the protein stability index was 2.43.

Take YQELLRVCCCELGVNPDQVEKYRK: the protein stability index amounted to 2.57.

As to YQELLRVCCCELGVNPDQVEKLRK, the protein stability index was found to be 1.93.

As for YQELLRVCCCELGVNPDQVEKFRK, the protein stability index amounted to 2.44.

In the case of YQELLRVCCCELGVNPDQVEKWRK, the protein stability index is 1.54.

As to YQELLRVCCCELGVNPDQVEKCRK, the protein stability index came out at 2.13.

As for YQELLRVCCCELGVNPDQVEKMRK, the protein stability index was 1.63.

For the variant YQELLRVCCCELGVNPDQVEKSRK, the protein stability index came out at 2.06.

For YQELLRVCCCELGVNPDQVEKVRK, the protein stability index worked out at 1.41.

Take YQELLRVCCCELGVNPDQVEKDRK: the protein stability index came out at 2.25.

As to YQELLRVCCCELGVNPDQVEKQRK, the protein stability index is 2.99.

Turning to YQELLRVCCCELGVNPDQVEKHRK, the protein stability index came out at 2.69.

As for YQELLRVCCCELGVNPDQVEKRRK, the protein stability index worked out at 1.88.

Consider YQELLRVCCCELGVNPDQVEKARK, for which the protein stability index stood at 2.02.

For YQELLRVCCCELGVNPDQVEKPRK, the protein stability index is 1.18.

As for YQELLRVCCCELGVNPDQVEKERK, the protein stability index stood at 2.14.

Regarding YQELLRVCCCELGVNPDQVEKGRK, the protein stability index was 2.

Take YQELLRVCCCELGVNPDQVEKIRF: the protein stability index worked out at 3.37.

Take YQELLRVCCCELGVNPDQVEKIRE: the protein stability index was 1.62.

Consider YQELLRVCCCELGVNPDQVEKIRA, for which the protein stability index came out at 1.36.

Take YQELLRVCCCELGVNPDQVEKIRT: the protein stability index was 2.

Regarding YQELLRVCCCELGVNPDQVEKIRW, the protein stability index came out at 1.27.

For YQELLRVCCCELGVNPDQVEKIRR, the protein stability index was 1.6.

With YQELLRVCCCELGVNPDQVEKIRQ, the protein stability index was found to be 2.12.

In the case of YQELLRVCCCELGVNPDQVEKIRS, the protein stability index was found to be 1.66.

As for YQELLRVCCCELGVNPDQVEKIRM, the protein stability index was determined as 1.66.

For the variant YQELLRVCCCELGVNPDQVEKIRD, the protein stability index turned out to be 2.13.

Take YQELLRVCCCELGVNPDQVEKIRI: the protein stability index is 1.6.

Consider YQELLRVCCCELGVNPDQVEKIRC, for which the protein stability index is 1.

Turning to YQELLRVCCCELGVNPDQVEKIRN, the protein stability index came out at 1.61.

Regarding YQELLRVCCCELGVNPDQVEKIRP, the protein stability index stood at 1.35.

Take YQELLRVCCCELGVNPDQVEKIRH: the protein stability index turned out to be 1.59.

For the variant YQELLRVCCCELGVNPDQVEKIRL, the protein stability index was 2.07.

For the variant YQELLRVCCCELGVNPDQVEKIRV, the protein stability index was found to be 1.61.

For YQELLRVCCCELGVNPDQVEKIRG, the protein stability index worked out at 2.46.

The values are drawn from the supplement of paper PMC10567573.
